Laboratory results as given in the Human Domainome abundance scans (Beltran et al. 2025).

B1: Ankyrin repeat and SAM domain-containing protein 6, residues 774 to 836; numbered along this chain, Q68DC2 (parent)
chain: DEDELTGILKKLSLEKYQPIFEEQEVDMEAFLTLTDGDLKELGIKTDGSRQQILAAISELNAG
B2: Nuclear receptor subfamily 4 group A member 2, residues 260 to 336; numbered along this chain, P43354 (parent)
chain: EGLCAVCGDNAACQHYGVRTCEGCKGFFKRTVQKNAKYVCLANKNCPVDKRRRNRCQYCRFQKCLAVGMVKEVVRTD

Variants of: B1
Assay: abundance fitness (aPCA) (normalised: wild type 0, dead -1); higher = more abundant; growth selection in yeast, the domain comes from the species named
Settings: Homo sapiens

Abundance fitness: each site, then its substitutions
I57: L -0.257, V -0.206, Q -0.116, S -0.282, T -0.221, F -0.675, A -0.248, M -0.539, W -0.675, H -0.254, E -0.414, C -0.277, G -0.37, Y -0.696, K -0.349, N -0.437
A62: M -0.2, E 0.035, Q -0.121, F -0.345, T -0.161, N -0.07, P -0.294, G 0.011, C -0.017, S -0.09, V -0.117, W -0.475, R -0.048, L -0.178, K -0.25, I -0.325, D 0.031, H -0.074
A55: Y -0.128, G 0.105, S 0.043, I -0.203, R 0.108, P -0.528, L -0.159, V -0.301, F -0.256, W -0.386, Q -0.022, N 0.014, T 0.063, M -0.21, E 0.031, C 0.046, K 0.112
L60: F -0.04, K -0.508, G -0.301, S -0.466, N -0.286, D -0.359, C 0.033, Y 0.048, I -0.073, A -0.147, R -0.108, P -0.636, W 0.031, M -0.054, V -0.03
G63: W -0.464, S -0.069, F -0.532, P -0.052, R 0.073, I -0.161, A -0.007, T -0.105, H -0.216, N -0.266, V -0.135, K -0.166, C -0.111, D -0.278, E -0.2
E59: W -0.35, I -0.505, D -0.078, K 0.02, Y 0.02, V -0.267, N -0.212, Q -0.097, P -0.614, H 0.047, C -0.272, T -0.106, A 0, M -0.169, S -0.113
S58: K 0.157, N 0.118, A 0.045, H -0.114, M -0.205, Y -0.466, R 0.022, T -0.064, Q -0.198, I -0.533, F -0.434, G 0.034
L54: T -0.312, M -0.137, H -0.439, E -0.24, D -0.59, Y -0.634, P -0.311, S -0.234, F -0.757, K -0.245, R -0.337, C -0.075, W -0.813, V -0.252, G -0.433, I -0.133, Q -0.273
N61: M -0.333, L -0.299, S -0.173, Q -0.127, A -0.148, H -0.007, T -0.001, C -0.314, R 0.007, P -0.461, K 0.071, W -0.531, G -0.186, D -0.297, Y -0.345, I -0.449
A56: W -0.708, Y -0.109, N -0.385, G 0.009, V -0.133, D -0.183, T -0.113, K -0.202, H -0.147, L -0.17, C 0.007, S -0.157, I -0.486, P -0.377, F -0.246, M -0.227, E 0.004

Variants of: B2
Assay: as above
Settings: Homo sapiens

Abundance fitness: each site, then its substitutions
G26: Q -0.171, E -0.214, L -0.137, H 0.16, M -0.27, D -0.062, K -0.352, F 0.068, A -0.079, C -0.138, S -0.218, R -0.174
D9: W -0.058, G 0.05
G8: D -0.459, M -0.019, L 0.457
G17: Q 0.044, M -0.076, L -0.133, T -0.097, R -0.173, E -0.116, K -0.346, V -0.364, P -0.841, S -0.371, H -0.004, W -0.383, I 0.092, C 0.255
K25: L 0.057, R 0.079, P -0.675, T -0.12, W -0.013, M 0.082, N 0.033, Q -0.019, A 0.127, S -0.031, G 0.101, V 0.046, E 0.049, F -0.047, D -0.017, Y -0.503
V18: W -0.484, E -0.044, C -0.263, A 0.116, R -0.29, H -0.387, P -0.11, F -0.111, G -0.112, L -0.15, Q -0.161, S -0.121
C13: K 0.099, D -0.022, L 0.083, S 0.092, E 0.03, R -0.103, H 0.136, G 0.057, T 0.006, I -0.298, W 0.082, V 0.046, A 0.1, M 0.239, F 0.116, Y -0.138
Q14: A 0.207, S 0.117, Y 0.572, R -0.061, D -0.189, I -0.211, P -0.012, G 0.005, N -0.088, V 0.095, M 0.199, W 0.017, E -0.129, L 0.221, T -0.013, K 0.256
C4: R -0.47
A5: R -0.026, L 0.219
R19: I -0.03, Q -0.053, H 0.137, S 0.034, E 0.064, M -0.175, K 0.05, Y -0.12, A 0.015, C 0.009, N 0.182, V 0.005, P 0.037, D -0.202, W -0.053, L 0.026, F 0.14
G2: V -0.191, S -0.075
Y16: P -0.112, F 0.037, R -0.051, T -0.131, N 0.029, K -0.185, A 0.049, V -0.185, W -0.351, Q 0.025, S -0.1, G -0.01, M 0.383, I -0.432, L -0.081
L3: F -0.026, V -0.054
C21: L -0.725, A -0.632, Q 0.041, G -0.46, R -0.981
E22: S -0.204, N 0.248, K -0.067, Q 0.089, W -0.208, M 0.027, D 0.049, H -0.02, I -0.393, V -0.213, Y 0.06, L -0.067, G -0.142, P -0.001, F -0.102
T20: S 0.204
C24: R -0.954, V -0.802
H15: G -0.082, P 0.104, S -0.053, Q -0.318, E -0.106, M 0.054, V 0.016, A -0.138, R -0.137, W 0.013, C -0.097, N -0.012, K -0.101, T 0.01, L -0.014
G23: S 0.306, I 0.017, E -0.016, C 0.065, W -0.029, K 0.106, A -0.136, Q -0.208
